In doi:10.1101/2022.12.14.520423:

Biological target: T1, CLAMP (CLAMPmel) (Drosophila melanogaster, UniProt Q9V9N4 1-561)
T1 sequence: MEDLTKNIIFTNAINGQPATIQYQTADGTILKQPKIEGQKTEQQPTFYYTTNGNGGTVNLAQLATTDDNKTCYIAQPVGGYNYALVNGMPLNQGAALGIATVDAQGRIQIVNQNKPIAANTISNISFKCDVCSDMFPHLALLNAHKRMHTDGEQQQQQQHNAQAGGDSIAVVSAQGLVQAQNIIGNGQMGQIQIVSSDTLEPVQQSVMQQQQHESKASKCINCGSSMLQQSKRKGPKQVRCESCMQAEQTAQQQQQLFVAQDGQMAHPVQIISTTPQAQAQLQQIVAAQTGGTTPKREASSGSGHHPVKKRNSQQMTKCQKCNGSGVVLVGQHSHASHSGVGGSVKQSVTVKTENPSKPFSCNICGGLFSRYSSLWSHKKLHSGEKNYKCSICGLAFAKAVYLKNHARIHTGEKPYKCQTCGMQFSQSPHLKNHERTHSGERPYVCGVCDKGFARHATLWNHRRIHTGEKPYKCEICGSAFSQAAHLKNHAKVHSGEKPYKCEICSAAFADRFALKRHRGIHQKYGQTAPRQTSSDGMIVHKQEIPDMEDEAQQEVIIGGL
Test: EMSA

B1: Dvir 2 (dsDNA)
DNA 1: TACCAAAAACTCAAAAAGACGAGCGAGTGAAAACATATTTCCATCTCGCTCACATACTAC
DNA 2: GTAGTATGTGAGCGAGATGGAAATATGTTTTCACTCGCTCGTCTTTTTGAGTTTTTGGTA
**Q.** Does B1 bind?
**A.** Result: binds
